These results are taken from the RNAGym collection of RNA variant scans (doi:10.7554/elife.80360).

The labels stand for the following.
B1: CPEB3 Ribozyme (parent)
chain: GGGGGCCACAGCAGAAGCGUUCACGUCGCGGCCCCUGUCAGAUUCUGGUGAAUCUGCGAAUUCUGCUGU

In this series the parent is B1. Nature of the series: self-cleavage, relative activity (ratio to wild type); higher = more cleavage; co-transcriptional.
As for G47C U55C, the self-cleavage came to 0.943.

U46A C66U: the self-cleavage is 0.972.

Take U46A C66G: the self-cleavage was found to be 0.961.

As to U46A C66A, the self-cleavage is 0.924.

C45U U69A: the self-cleavage is 1.05.

In the case of C45U U69C, the self-cleavage amounted to 1.08.

With C45G U49C, the self-cleavage came to 0.915.

For the variant C45G U49G, the self-cleavage was 0.947.

As to U46C G56U, the self-cleavage worked out at 0.837.

Take C45G C57A: the self-cleavage worked out at 0.318.

With C45G C57U, the self-cleavage turned out to be 0.366.

Turning to C45G C57G, the self-cleavage was 0.328.

As to G47A C66G, the self-cleavage is 0.953.

Regarding G47A C66U, the self-cleavage came to 0.959.

Turning to G47A C57A, the self-cleavage turned out to be 0.347.

As to G47A C57U, the self-cleavage was 0.321.

For the variant G47C U64A, the self-cleavage is 0.979.

On to G47C U64G, for which the self-cleavage came out at 0.938.

On to G47C A59C, for which the self-cleavage was 0.837.

Turning to G47C A59G, the self-cleavage stood at 0.958.

In the case of G47C A59U, the self-cleavage was found to be 0.863.

On to G47A A60U, for which the self-cleavage was 0.475.

With G47A C54A, the self-cleavage stood at 0.961.

G47A C54G: the self-cleavage turned out to be 0.979.

For the variant G47C G58U, the self-cleavage came to 0.997.

As for G47C G58C, the self-cleavage worked out at 0.977.

For G47C G58A, the self-cleavage stood at 0.939.

With U46A C54G, the self-cleavage stood at 0.971.

With U46A C54A, the self-cleavage was 0.933.

Turning to C45G G68C, the self-cleavage turned out to be 1.

C45G G68A: the self-cleavage was 0.942.

As for U46A C57U, the self-cleavage is 0.309.

As for U46A C57G, the self-cleavage worked out at 0.31.

On to U46C A60U, for which the self-cleavage stood at 0.472.

Consider U46C A60C, for which the self-cleavage stood at 0.339.

Consider U46G A59G, for which the self-cleavage was found to be 0.965.

Turning to U46G A59U, the self-cleavage was found to be 0.842.

Consider C45G G47A, for which the self-cleavage is 1.03.

On to C45U U64G, for which the self-cleavage worked out at 0.854.

Regarding G47A G65U, the self-cleavage turned out to be 0.858.

As to G47A G65C, the self-cleavage turned out to be 0.79.

On to C45U U55A, for which the self-cleavage worked out at 0.825.

With C45U U55C, the self-cleavage is 0.755.

Take C45U U55G: the self-cleavage turned out to be 0.668.

With G47C C63U, the self-cleavage was determined as 1.01.

For U46A G48C, the self-cleavage stood at 1.01.

U46A G48U: the self-cleavage was determined as 0.991.

Regarding U46A G48A, the self-cleavage worked out at 1.01.

As to U46G U55C, the self-cleavage is 0.936.

Turning to U46G U55A, the self-cleavage amounted to 0.899.

For U46G U55G, the self-cleavage came to 0.83.

On to U46G C63A, for which the self-cleavage was 0.869.

On to U46G C63U, for which the self-cleavage was determined as 1.03.

Take U46G G68C: the self-cleavage stood at 1.04.

In the case of U46G G68U, the self-cleavage came out at 0.971.

For G47C U61A, the self-cleavage was 0.97.

With G47C U61G, the self-cleavage is 0.937.

For G47U, the self-cleavage turned out to be 1.

Turning to G47A, the self-cleavage was determined as 1.

Consider G47C, for which the self-cleavage turned out to be 1.

Turning to C45U G47A, the self-cleavage stood at 1.03.

With C45U G47U, the self-cleavage amounted to 1.02.

Take G47C G56U: the self-cleavage came out at 1.02.

Turning to G47C G56C, the self-cleavage was 0.92.

In the case of U46A U69C, the self-cleavage came to 1.07.

As to U46A U69A, the self-cleavage was found to be 0.991.

U46A U64G: the self-cleavage was found to be 0.964.

As to U46A U64A, the self-cleavage came to 0.955.

On to C45G U69A, for which the self-cleavage came to 1.01.

As for C45G U69C, the self-cleavage was 1.05.

Regarding G47C U62G, the self-cleavage was 0.901.

With G47C U62A, the self-cleavage was found to be 1.

In the case of U46C U69A, the self-cleavage worked out at 0.997.

Consider U46C U69G, for which the self-cleavage turned out to be 1.05.

On to U46C U69C, for which the self-cleavage worked out at 1.06.

Turning to C45G C54U, the self-cleavage stood at 0.952.

Consider C45G C54G, for which the self-cleavage is 0.688.

In the case of C45U U67C, the self-cleavage came to 0.955.

Regarding U46C U53G, the self-cleavage was determined as 0.872.

For C45U G68U, the self-cleavage amounted to 1.01.

As to C45U G68C, the self-cleavage came to 1.

G47C G48A: the self-cleavage worked out at 0.988.

Consider C45G A52C, for which the self-cleavage was determined as 0.981.

With G47A A51G, the self-cleavage stood at 1.02.

For G47A A51U, the self-cleavage was determined as 0.953.

Consider C45G U67A, for which the self-cleavage was 0.962.

For C45G U67C, the self-cleavage is 0.917.

In the case of C45U A52C, the self-cleavage is 0.988.

Take C45U A52G: the self-cleavage came out at 1.01.

As for C45U A52U, the self-cleavage amounted to 0.972.

With G47A G48A, the self-cleavage turned out to be 1.03.

With G47A G48C, the self-cleavage came to 1.03.

For the variant U46A A59G, the self-cleavage is 1.02.

As for U46A A59C, the self-cleavage turned out to be 0.802.

In the case of U46G C54G, the self-cleavage is 0.907.

U46G C66G: the self-cleavage came out at 0.956.

Regarding U46G C66U, the self-cleavage came out at 0.986.

For the variant U46G C66A, the self-cleavage stood at 0.786.

Regarding G47A U69G, the self-cleavage was 1.05.

As to G47A U69A, the self-cleavage stood at 1.03.

Turning to U46C C54A, the self-cleavage came out at 0.772.

Consider U46C C54G, for which the self-cleavage turned out to be 0.891.

With U46A A60C, the self-cleavage turned out to be 0.346.

As to U46A A60G, the self-cleavage was 0.91.

For the variant U46A U61C, the self-cleavage was found to be 0.86.

U46A U61G: the self-cleavage came to 0.902.

Take G47A U53G: the self-cleavage is 0.971.

Regarding G47A U53C, the self-cleavage came to 0.978.

As for G47A U53A, the self-cleavage stood at 1.02.

On to U46C U61A, for which the self-cleavage was determined as 0.95.

As to G47A U49G, the self-cleavage stood at 0.994.

Regarding G47C A51C, the self-cleavage came to 1.04.

Consider U46G U49A, for which the self-cleavage is 0.972.

On to U46G U49C, for which the self-cleavage was found to be 1.04.

Take G47U A52U: the self-cleavage is 0.973.

Consider U46A U49A, for which the self-cleavage came to 1.02.

In the case of C45G U61G, the self-cleavage turned out to be 0.731.

For the variant C45G U61C, the self-cleavage came out at 0.757.

Turning to C45G U61A, the self-cleavage amounted to 0.922.

As to G47A U62C, the self-cleavage came out at 0.933.

For the variant G47A U62A, the self-cleavage was found to be 0.976.

For U46A A51U, the self-cleavage turned out to be 1.01.

For U46A A51C, the self-cleavage amounted to 0.99.

For the variant C45A U67A, the self-cleavage amounted to 0.951.

Regarding C45A U67C, the self-cleavage worked out at 0.98.

Take C45A U67G: the self-cleavage is 1.01.

Turning to G47C U53C, the self-cleavage came out at 0.992.

As to G47C U53A, the self-cleavage amounted to 0.967.

Take G47C U53G: the self-cleavage was 0.911.

Consider G47C G68A, for which the self-cleavage is 1.

G47C G68C: the self-cleavage is 1.02.

For G47C G68U, the self-cleavage is 0.994.

Turning to C45G G58C, the self-cleavage worked out at 0.946.

On to C45G G58A, for which the self-cleavage was found to be 0.919.

For C45G G58U, the self-cleavage stood at 1.01.

Take U46G G65C: the self-cleavage came to 0.681.

As for C45G A51U, the self-cleavage was 1.03.

As to C45G A51C, the self-cleavage worked out at 1.01.

Regarding C45G A51G, the self-cleavage stood at 1.02.

For C45G, the self-cleavage amounted to 0.986.

For the variant C45U, the self-cleavage was 0.996.

Take U46G G47A: the self-cleavage amounted to 1.02.

As to U46G G47C, the self-cleavage came to 1.02.

For U46G G47U, the self-cleavage was 0.976.

With U46A A52C, the self-cleavage worked out at 1.01.

In the case of G47C G65U, the self-cleavage was found to be 0.908.

As to G47C G65C, the self-cleavage was found to be 0.726.

Regarding G47C G65A, the self-cleavage worked out at 0.963.

As to G47C C57U, the self-cleavage came to 0.344.

For the variant G47C C57A, the self-cleavage amounted to 0.32.

On to G47A G58C, for which the self-cleavage is 0.951.

With G47A G58A, the self-cleavage came to 0.96.

As for G47A G68A, the self-cleavage stood at 1.01.

Take G47A G68U: the self-cleavage amounted to 1.01.

With U46G U53G, the self-cleavage was 0.918.

As to U46G U53C, the self-cleavage is 0.978.

As to U46G U53A, the self-cleavage came to 1.01.

U46G U67G: the self-cleavage was determined as 0.995.

For U46G U67A, the self-cleavage came to 0.99.

In the case of G47C U69C, the self-cleavage was determined as 1.06.

With G47U A59G, the self-cleavage was 1.

On to G47U A59C, for which the self-cleavage amounted to 0.832.

With U46A U62G, the self-cleavage was found to be 0.925.

For the variant U46A U62C, the self-cleavage came to 0.895.

Consider G47A G50U, for which the self-cleavage was determined as 1.01.

Regarding C45U U53C, the self-cleavage amounted to 0.834.

In the case of C45U U49A, the self-cleavage was 0.993.
